Data: US20120321619A1 (Bayer, published 2012)

T1: human C4.4a on transfected A549:hC4.4a cells (human, UniProt O95274 31-326)
T1 sequence: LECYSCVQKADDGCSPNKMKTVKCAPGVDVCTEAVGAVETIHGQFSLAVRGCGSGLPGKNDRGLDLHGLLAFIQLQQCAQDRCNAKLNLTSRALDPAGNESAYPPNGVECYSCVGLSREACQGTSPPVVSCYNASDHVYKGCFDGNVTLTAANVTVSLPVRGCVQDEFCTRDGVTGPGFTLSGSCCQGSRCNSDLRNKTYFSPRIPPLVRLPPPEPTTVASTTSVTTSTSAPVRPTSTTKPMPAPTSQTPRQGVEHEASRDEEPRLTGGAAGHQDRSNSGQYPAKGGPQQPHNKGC

T2: human C4.4a natively expressed on tumor cell lines (human, UniProt O95274 31-326)
T2 construct: whole, on cells; also called NCI H292; NCI H322
T2 sequence (looked up): T1 sequence

T3: recombinant soluble human C4.4a (human, UniProt O95274 31-308)
T3 construct: recombinant, soluble, purified protein; also called hC4.4a; full length C4.4a
T3 sequence: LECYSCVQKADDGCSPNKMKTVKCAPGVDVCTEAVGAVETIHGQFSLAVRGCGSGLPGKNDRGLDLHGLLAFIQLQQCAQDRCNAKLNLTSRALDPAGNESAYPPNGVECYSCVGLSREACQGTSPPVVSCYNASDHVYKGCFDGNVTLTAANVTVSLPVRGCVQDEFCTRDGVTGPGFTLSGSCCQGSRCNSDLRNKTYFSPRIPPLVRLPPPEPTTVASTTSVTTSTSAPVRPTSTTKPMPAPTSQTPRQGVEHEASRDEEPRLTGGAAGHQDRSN

T4: recombinant soluble murine C4.4a (mouse, UniProt Q91YK8 33-343, limits assumed)
T4 construct: also called mouse C4.4a; mC4.4a
T4 sequence (looked up): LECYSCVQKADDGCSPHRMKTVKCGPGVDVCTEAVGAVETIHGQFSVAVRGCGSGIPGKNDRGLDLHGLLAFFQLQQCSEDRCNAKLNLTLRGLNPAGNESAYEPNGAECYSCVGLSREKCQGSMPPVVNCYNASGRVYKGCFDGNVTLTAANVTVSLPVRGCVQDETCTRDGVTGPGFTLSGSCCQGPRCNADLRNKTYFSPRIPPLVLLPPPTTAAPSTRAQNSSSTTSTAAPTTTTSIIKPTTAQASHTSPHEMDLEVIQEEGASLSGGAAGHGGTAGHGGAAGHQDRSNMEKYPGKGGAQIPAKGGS

T5: murine C4.4a on transfected CHO-S:mC4.4a cells (mouse, UniProt Q91YK8 33-343)
T5 construct: full length GPI-anchored form, stably transfected; also called Mouse C4.4a:CHO; mC4.4a: CHO
T5 sequence: T4 sequence (looked up)

B1: M20-D02 S-A (antibody, human IgG1, V domains shown)
VH: EVQLLESGGGLVQPGGSLRLSCAASGFTFSDYQMTWIRQTPGKGLEWVSGVSWNGARTHYADSVKGRFTISRDNSKNTLYLQMNSLRAEDTAVYYCAKGDYLVYSAYYFDSWGQGTLVTVTS
VL: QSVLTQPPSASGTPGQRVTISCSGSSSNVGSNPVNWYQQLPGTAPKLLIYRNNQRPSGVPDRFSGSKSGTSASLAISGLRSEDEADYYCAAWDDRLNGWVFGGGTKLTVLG
notes: tested as human IgG1
B2: M31-B01 (antibody, human IgG1, V domains shown)
VH: EVQLLESGGGLVQPGGSLRLSCAASGFTFSNAWMSWVRQAPGKGLEWVSYISSSGSTIYYADSVKGRFTISRDNSKNTLYLQMNSLRAEDTAVYYCAREGLWAFDYWGQGTLVTVTS
VL: QSVLTQPPSASGTPGQRVTISCTGSSSNIGAGYVVHWYQQLPGTAPKLLIYDNNKRPSGVPDRFSGSKSGTSASLAISGLRSEDEADYYCAAWDDRLNGPVFGGGTKLTVLG
notes: tested as human IgG1

How the values were obtained:
[1] = molecular target: T1, human C4.4a on transfected A549:hC4.4a …; assay: cell-based or functional assay
[2] = molecular target: T2, human C4.4a natively expressed on tumor …; assay: FACS titration of IgG1 on NCI H292 cells
Protocol: FACS titration was performed in a 96 well microtiter plate, in which serial dilutions of the primary antibody in a volume of 50 W of FACS buffer (3% FCS, in PBS) were mixed with 50 μl of a cell suspension consisting of 2×10^5 cells/ml which had been detached with Cell Dissociation Solution (1×) Non-enzymatic (Sigma), and resuspended in FACS buffer. Incubation was performed at 4° C. for 1 hour with agitation. Cells were pelleted, washed with FACS buffer and resuspended in 100 μl/well of Phycoerythrin labeled goat anti human IgG (Dianova) solution in FACS buffer. Incubation and washing was performed as before. Analysis of cell-bound antibodies was done at the respective detection wavelength using the FACS Array device. EC₅₀ values were determined from fluorescence medians of duplicates using Swift 8.0 software.

[3] = molecular target: T3, recombinant soluble human C4.4a; assay: SPR (Biacore T100), IgG1 captured by anti-human Fc, soluble C4.4a injected, 1:1 fit
Protocol: (§1) Binding affinities of anti C4.4 antibodies were determined by surface plasmon resonance analysis on a Biacore T100 instrument (GE Healthcare Biacore, Inc.). Antibodies were immobilized onto a CM5 sensor chip through an indirect capturing reagent, anti-human IgG Fc. Reagents from the “Human Antibody Capture Kit” (BR-1008-39, GE Healthcare Biacore, Inc.) were used as described by the manufacturer. Approximately 5000 RU monoclonal mouse anti-human IgG (Fc) antibody were immobilized per cell. Anti C4.4 antibodies were injected at a concentration of 5 μg/ml at 10 μl/min for 10 sec to reach a capturing level of approximately 200 to 600 RU. Various concentrations (400 nM, 200 nM, 100 nM, 50 nM, 25 nM, 12.5 nM, 6.25 nM, and 3.12 nM) in HEPES-EP buffer (GE Healthcare Biacore, Inc.) of human or murine C4.4a were injected over immobilized anti C4.4a antibodies at a flow rate of 60 μl/min for 3 minutes and the dissociation was allowed for 10 minutes. Sensograms were generated after in-line reference cell correction followed by buffer sample subtraction. The dissociation equilibrium constant (KD) was calculated based on the ratio of association (kₒₙ) and dissociation rated (koff) constants, obtained by fitting sensograms with a first order 1:1 binding model using Biavaluation Software (version 4.0).

[4] = molecular target: T4, recombinant soluble murine C4.4a; assay: as above
Protocol: as §1

[5] = molecular target: T6, hC4.4a domain S2-Fc-his6 (human, UniProt O95274 138-223); assay: western blot of purified S2-Fc-6×HisTag fusion
T6 construct: C-terminal human IgG1 Fc-6×HisTag fusion from HEK293 6E cells; also called S2 Fc-6×HisTag; domain S2 of C4.4a
Protocol: The SDS gel was then blotted to a iblot gel transfer membrane (Invitrogen IB3010-02) using an iBlot device (Invitrogen). The membrane was blocked in DPBS pH 7.4+4% milk powder+0.1% Tween 20 for 16 h at 4° C., followed by three washing steps for 5 min at 20° C. in DPBS pH 7.4+0.1% Tween 20. M31-B01 (5.76 mg/ml) or M20-D02 S-A (3.49 mg/ml) were applied in dilutions of 1/5000 and 1/2000 respectively and incubated for 1.5 h at 20° C., followed by 2× washes in DPBS pH 7.4+0.1% Tween 20. The second antibody (alk. Phosphatase. Conjugate Goat anti human IgG, Fab specific; 109-055-097 Jackson ImmunoResearch) was incubated at a dilution of 1/1000 for 1.5 h at 20° C. Followed by 3 washing steps for 5 min at 20° C. in DPBS pH 7.4+0.1% Tween 20. Staining was performed with Sigma Fast BCIP/NBT/1 tablet in 10 ml water at 20° C. till the bands became visible. Staining reaction was stopped by washing with water.

[6] = molecular target: T5, murine C4.4a on transfected …; assay: FACS titration of IgG1 on CHO-S:mC4.4a cells

Binder	internalization t½ [min] into A549:hC4.4a cells (CypHer 5E labeled antibody) [1] [min]	EC50 [2] [nM]	Kd [3] [nM]	Kd [4] [nM]	binding result [5]	EC50 [6] [nM]
B1	60	1.3	220	180	no binding	1.6
B2	49	0.3	70	130	no binding	1.9
